# Test results taken from paper PMC10123090, “The MksG nuclease is the executing part of the bacterial plasmid defense system MksBEFG” (Nucleic Acids Research, 2023).
# T1: MksF (His6-MksF), kleisin subunit of the Corynebacterium glutamicum MksBEFG complex (Corynebacterium glutamicum, UniProt Q8NLY0 1-495)
# T1 construct: MksF of Corynebacterium glutamicum, gene mksF (cg3106), amplified from genomic DNA and ligated NdeI/BamHI into pET28a (plasmid pMG001); Analyte in the BLI experiments with constants; biotinylated (EZ-Link NHS-PEG4, ratio 3:1) where used as bait; Also purified together with MksE; also called cg3106; source: E. coli BL21 (DE3) pLysS, purified (Ni-NTA, SEC)
# T1 sequence (looked up): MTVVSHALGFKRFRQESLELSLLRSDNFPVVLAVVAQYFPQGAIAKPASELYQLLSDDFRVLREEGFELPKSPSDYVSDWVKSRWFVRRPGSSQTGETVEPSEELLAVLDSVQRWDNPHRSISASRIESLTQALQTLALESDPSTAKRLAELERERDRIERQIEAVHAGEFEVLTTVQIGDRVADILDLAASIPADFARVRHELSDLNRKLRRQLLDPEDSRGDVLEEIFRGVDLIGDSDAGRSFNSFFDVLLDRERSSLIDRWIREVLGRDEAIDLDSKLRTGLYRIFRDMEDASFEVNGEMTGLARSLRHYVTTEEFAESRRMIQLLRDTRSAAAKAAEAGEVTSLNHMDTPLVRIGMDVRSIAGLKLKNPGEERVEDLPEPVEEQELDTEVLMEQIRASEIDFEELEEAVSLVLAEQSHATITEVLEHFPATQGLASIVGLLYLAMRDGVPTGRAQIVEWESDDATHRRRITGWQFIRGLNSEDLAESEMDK
# B1: MksG, 6xHis-SUMO-tagged construct for crystallization (enzyme, Corynebacterium glutamicum)
# chain: MPLFIDDALHRSKKYFHAHLSELLLGEFAGLSLPLHPPTAAKAAADIDATREFIRQWEGRDDVEYAIRNWSPVGLGKTEVPVRLTLNTTEELVVFAQVEDEWSSLHERFSQLSGFTAEVVAKHVSLWRSLSNDDLSKAVLVVDWFLKHPNSGLLKRAVAVEGVHTKWLENHRVLIETLVADKRGEPGRADLGLGDAEARVRLRFHSVDAPAGLTDIEVPLSNLCELQEPQVILMVENLDSFLALPTWPGVTIAWGAGYRAVDIVRGPYFSNGRLLYWGDLDLDGFKILDGVRSHVPHTESVLMNSETVSRWRYLGVADREFKAESFDNLHDFESDALDLLITDGELRIEQERIRLDVAVEEIEKVIRG
# notes: MksG of Corynebacterium glutamicum (cg3103), amplified from pMG003 and subcloned into a pET28 derivative with an N-terminal 6xHis-SUMO tag; The methods tell of no cleavage of the 6xHis-SUMO tag before crystallization; also called 6xHis-SUMO-MksG; source: E. coli BL21 C41, purified (Ni-NTA, SEC)
# B2: MksG (His6-MksG), nuclease subunit of the Corynebacterium glutamicum MksBEFG complex (enzyme)
# chain: B1 chain
# notes: MksG of Corynebacterium glutamicum, gene mksG (cg3103), amplified from genomic DNA and ligated NdeI/BamHI into pET28a (plasmid pMG003); Biotinylated (EZ-Link NHS-PEG4, ratio 3:1) where used as bait in BLI; The methods speak of 'dimeric MksG'; also called cg3103; source: E. coli BL21 (DE3) pLysS, purified (Ni-NTA, SEC)
# Experiments:
# MksBEF = biological target: T2, MksBEF (Corynebacterium glutamicum, UniProt Q8NLY2); assay: EnzChek phosphate release; assay type: biochemical; conditions: 2 mM Mg-ATP, 30 °C, with or without 50 ng/ul plasmid DNA (pBHK18)
# T2 construct: gene Cgl2804; with Kleisin subunit MksF (MukF/JetA homologue); Kite subunit MksE (MukE/JetB homologue)
# [1] = biological target: MksE (His6-MksE), kite subunit of the Corynebacterium glutamicum MksBEFG complex (Corynebacterium glutamicum) (UniProt Q8NLY1); assay: BLI; BLItz, streptavidin biosensors; biotinylated bait immobilised (MksE 25 ug/ml, MksB 50 ug/ml or MksG 100 ug/ml), MksF as analyte 1-5 uM; BLI buffer 10 mM Na2HPO4, 137 mM NaCl, 2.7 mM KCl, 1.8 mM KH2PO4, 10 mM MgCl2, 5% glycerol, pH 7.4; 1:1 binding model
# [2] = biological target: MksB (His10-MksB), condensin-like ATPase subunit of the Corynebacterium glutamicum MksBEFG complex (Corynebacterium glutamicum) (UniProt Q8NLY2); assay: as above
# [3] = biological target: the molecule itself; assay: crystal structure; X-ray, 4.6 A, solved by molecular replacement with AlphaFold2 domain models; crystals in 10% PEG 6K, 30% ethanol, 10 mM sodium acetate
# [4] = biological target: T1, MksF (His6-MksF), kleisin subunit of …; assay: BLI; BLItz, streptavidin biosensors; biotinylated bait immobilised (MksE 25 ug/ml, MksB 50 ug/ml or MksG 100 ug/ml), MksF as analyte 1-5 uM; BLI buffer 10 mM Na2HPO4, 137 mM NaCl, 2.7 mM KCl, 1.8 mM KH2PO4, 10 mM MgCl2, 5% glycerol, pH 7.4; 1:1 binding model; conditions: both partners purified
# Chain of MksB (His10-MksB), condensin-like ATPase subunit of the Corynebacterium glutamicum MksBEFG complex (Corynebacterium glutamicum) (Q8NLY2 entry or part of it, one chain of several): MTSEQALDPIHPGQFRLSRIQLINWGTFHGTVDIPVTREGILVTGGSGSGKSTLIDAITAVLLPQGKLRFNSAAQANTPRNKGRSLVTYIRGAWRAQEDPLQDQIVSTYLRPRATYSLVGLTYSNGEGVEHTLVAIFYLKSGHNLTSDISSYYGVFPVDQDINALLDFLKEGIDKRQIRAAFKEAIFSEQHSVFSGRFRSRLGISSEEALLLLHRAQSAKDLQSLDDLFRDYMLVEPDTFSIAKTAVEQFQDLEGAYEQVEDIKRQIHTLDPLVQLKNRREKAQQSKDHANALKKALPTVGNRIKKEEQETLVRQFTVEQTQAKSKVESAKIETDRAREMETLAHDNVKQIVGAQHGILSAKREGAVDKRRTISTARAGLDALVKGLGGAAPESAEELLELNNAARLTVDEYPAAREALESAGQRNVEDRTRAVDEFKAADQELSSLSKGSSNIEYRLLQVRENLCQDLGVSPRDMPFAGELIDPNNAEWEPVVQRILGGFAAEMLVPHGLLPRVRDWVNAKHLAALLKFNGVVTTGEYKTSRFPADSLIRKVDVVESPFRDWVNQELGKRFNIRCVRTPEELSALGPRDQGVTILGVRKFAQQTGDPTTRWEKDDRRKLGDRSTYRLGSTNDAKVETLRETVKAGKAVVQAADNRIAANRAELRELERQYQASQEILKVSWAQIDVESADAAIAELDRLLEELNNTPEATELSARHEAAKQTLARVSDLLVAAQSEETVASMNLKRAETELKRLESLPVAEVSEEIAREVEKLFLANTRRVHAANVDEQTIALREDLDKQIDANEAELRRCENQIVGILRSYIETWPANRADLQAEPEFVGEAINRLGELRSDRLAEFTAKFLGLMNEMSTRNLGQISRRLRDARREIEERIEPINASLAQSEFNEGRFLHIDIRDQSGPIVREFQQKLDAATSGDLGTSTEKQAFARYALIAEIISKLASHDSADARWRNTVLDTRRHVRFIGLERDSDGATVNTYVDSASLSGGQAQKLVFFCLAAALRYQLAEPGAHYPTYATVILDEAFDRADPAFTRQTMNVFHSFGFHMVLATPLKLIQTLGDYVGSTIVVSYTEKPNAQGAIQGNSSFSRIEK
# Chain of MksE (His6-MksE), kite subunit of the Corynebacterium glutamicum MksBEFG complex (Corynebacterium glutamicum) (Q8NLY1 entry or part of it, one chain of several): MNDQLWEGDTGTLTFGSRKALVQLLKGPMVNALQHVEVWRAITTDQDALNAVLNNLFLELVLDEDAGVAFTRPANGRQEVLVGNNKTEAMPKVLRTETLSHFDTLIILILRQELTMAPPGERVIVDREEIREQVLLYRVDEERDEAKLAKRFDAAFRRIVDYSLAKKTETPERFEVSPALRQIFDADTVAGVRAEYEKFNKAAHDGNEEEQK
# T2 sequence (Q8NLY2 entry or part of it, one chain of several): as the sequence (Q8NLY2 entry or part of it, one chain of several) above
# T2 sequence (Q8NLY1 entry or part of it, one chain of several, further chain): as the sequence (Q8NLY1 entry or part of it, one chain of several) above
molecule,measurement,setting,value
Nc1ncnc2c1ncn2[C@@H]1O[C@H](COP(=O)(O)OP(=O)(O)OP(=O)(O)O)[C@@H](O)[C@H]1O [ATP],EnzChek phosphate release,MksBEF,kleisin subunit MksF and the kite subunit MksE stimulated the ATPase activity of MksB
"MksF (His6-MksF), kleisin subunit of the Corynebacterium glutamicum MksBEFG complex (from UniProt Q8NLY0 1-495) (natural protein)",Kd,[1],2.17 µM
same,koff,[1],0.16 s⁻¹
same,kon,[1],74200 M⁻¹ s⁻¹
same,Kd,[2],4.94 µM
same,koff,[2],0.138 s⁻¹
same,kon,[2],27800 M⁻¹ s⁻¹
B1,stoichiometry N,[3],2
B2,Kd,[4],6 µM
same,koff,[4],0.136 s⁻¹
same,kon,[4],22500 M⁻¹ s⁻¹
